From the supplement of paper PMC12636428

Tested on: Saccharomyces cerevisiae
Assay: transcriptional activation domain activity (GFP:mCherry ratio, weighted mean of sorted bins, harmonized to initial dataset scale) (arbitrary fluorescence ratio units); higher = stronger transcriptional activation
Conditions: beta-estradiol 1 µM; induction time 4 h
Procedure, shortened: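 Activation activity, the read-weighted mean of bin median fluorescence averaged across barcodes, was linearly mapped onto the scale of the initial dataset. It was measured for barcoded protein tiles fused to an estradiol-inducible synthetic transcription factor at URA3 in GFP-reporter yeast diploids. Cultures diluted 1:5 into SC with 1 uM beta-estradiol were held 4 hours at 30 °C, sorted into 8 bins by GFP:mCherry ratio, and barcode-sequenced, and tiles under 50 reads were discarded.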

Sequence | transcriptional activation domain activity
EPHNDIILDLLFTLAYWHALAKLRLHTDFTLSKLEEVTMFLGRQLRYLRRVTC | 51800
EPIQNEIAKLFHSGGDSVVDILFSQTSATEFVTVGGTGNVYHWDMEYSFSRND | 67800
EPKAEEPAPRKSDEGQGKDKEQPKEIKEEEQQRGRRPDKGKARVVVQGFAAEE | 23200
EPKKAKIGAPKRKKKEVIEDAEAGAGAETEEGEAPPKKKRGGRKAKPAKEEPV | 15600
EPLFLEAQLIHMINFFETFFHKYETSIDRHNLIRHNALEKYYQGINCGRHMLC | 95700
EPPPPPPEPEPQPPPKAEPPPEPEPEPVPKAEAPPPPPREEPPPPKKAPPPPK | 44000
EPQPPPKAEPPPEPEPEPVPKAEAPPPPREEPPPPKKAPPPPKPEPTPAPAPT | 38600
EPRISEGGLAALVASSPCKPAAVPILLTGPPKQAKACSSRLTGTHRPASNCKS | 36500
EPRQTGDSRSQSSGNTGENEEDIAFASGLNGGTFDSMLEALPDDLYFTDFVSP | 88800
EPRSLPASDLNKITLAPPNEESRMPKSMLELTSYSSDLPPELVDIIPKTDLTV | 58300
EPSRAGTPAPAPAAGEKKVGEAEGKVAEKAEGEGEGGKGAGEENNGKGKESVK | 19100
EPVEAEAQAEAEAETKEPETKSEETAAASTETEKVEDKREATTATEKAQAAAS | < 6570
EQAAKKKTAAPAAAPKAEAAKAPEVKAEAAAPAPEPEKPAAGGKKKKLNPALL | 52300
EQAEKEAAAEKATPKEAAAKEESPKEESPKEESPEKKEVKKPVKKTPTKKNAK | 27100
EQAPREGQGQGRGRGGRPRGEGRGRGGRGRGRGAPAGNGAAEAAATTAPKSTE | 21700
EQDAFFPWLWIDPQFPEDPVLGSWDTFLGDFNCGMPLDDLDFALDMLQYSVGA | 161000
EQDNVDSTQQSSTGRVKRSREDSASGERLRSTSRSRSKSPSGRHKRSRRHRRS | 36100
EQDSWNAQLDFFNHIFYTQLYPAYDLPKKLQEDTELETEQENQMLNQVGNINY | 109000
EQEEEEEEEEAKQPKKKRAKKWFEDESSGDEDTGDRKKKKRKARAAAAAAAAA | 41300
EQEVQEERARTGTKGRKRALDDDAAKEEKEEKKEKPEKKEKATKSGKATSAAS | 20800
EQFVLRDCGLLLWIDLRFLCHCARICLSACLDNYVYGVANITGKLVRFWGLGV | 63400

Sequence | transcriptional activation domain activity
EQGDTPAKKKARKGASGTGRKRKTVGDDEAAGGNEQEGQPKKKARREKAAATE | 29300
EQGQNLQGLLEFMCFEVGPMFLDLIIAFVYVYTLFDLYMSMILLFVGLAYVWI | 33200
EQKVPEGVKDSWDASSDEEEEETAVKPSKPAAAANGKSPSAPAKAATHAKPAP | 23500
EQLCMPIRRNDMRRRVELVRRCLLAALPSLPFWNEVCLWSTLNVFMSLLQDFF | 82700
EQPSAPAAAANSEEPDNKEAEKTETGAAAENKEAVANNGSESAEKEPAETSAS | 23500
EQQCICNYITSDPIWLIPLLGLLHRRLMYKVRLIYPFHISLANAFVTVCFHWL | 80900
EQRAEGVGERRGEGGGEAQRDGAADARRHERAAEGPVRHGERRREVQEGVQGV | 23500
EQSGNGDINNGTRNDIEINLYRSHPTMIMSKVMKREVKPLSENYIIIQDCFLK | 62500
EQVAPKFWKHGLFWAMCNEGMWLKELEFYYMINYYFKYLELLDTVFLALKKKP | 40200
EQWECTKLVLFSHFTIELPIIWLFHPVAEALGMTTYQVPFPSLQKMAIQIFLF | 39400
EQYKLVCEALHERATFLEIAPYLAHQLPIMLPLYKWWQLPYYWAGCKVYDLLA | 43400
ERAVVGLLRICLILATRPSLRDQIFVSFDLLAGLPPAIANAVAEQVVAGLILV | 35700
ERDDSRSERNVDDGDRRRAGRRRRDSRSSDDEHTTSRRRGGKDHADREDSDRR | 29100
ERDEEEDEDEEEEDEGKRRKRRGARSTAAISKRETGKAKDETREDPESRKKRG | 23600
ERDKRDDKDRERRHHKRSRHHDSDEERREGSSSRRHRHKSRRSKSPSSKVNEE | 22800
ERDMELLVGHFDFMAKEAFLADSISLCSTEEELERRLDTPVIQEDSPVMDNNT | 62900
ERDRKEQNGGGEGGRGGRHKKGARGAERRGHGSGSEGGGKAGANPERRTGGRG | < 6570
EREEEEEEEEEEEEVVVVAKAKANEREREEEAEEAEEVEEVVAKSRKAKGKAK | 16600
EREERRRQERAKEEAEGGNRRGKKNKGEAGGGKRGRGKRPRRGRRKGQRARGG | 34400
EREILWRAYLRLIKHVNSIFKIRIAYEWTEDYVIKYLWSAAGYCLISIPILFT | 77100
EREKKKGREKEEKGGKERRGKKGRGKEEGKKRRKRGRKERKEGRKGEEGKRGR | 33600

Sequence | transcriptional activation domain activity
ERERDRDRDRERDRDRDRERAREREHERNHERRKRRRERDRERRRGKSAAAAA | 33800
EREREKREEREREAARLRREAEEREREEHEGRKREKREEPEEREAEEREREVE | 33200
EREVRDEERTRRNREKRNRKKGKGGKGGKEDGGAGGGGGGGNVKARVGMVGDG | 15100
ERGKRKEGRKEEEGKEGEKGKEEKREEKRRGKRGEEKREGKKKEERRRGRRRR | 20800
ERGTEEREKEREEGMRGRRGKRNRGRWKREGEEEGGEEEGRKGRKEKGRQGAE | 47700
ERGTGGQGRRAEEEEAQGGDGGHKTKERGRDEEAGAGGGPAEAGAGAGAKGRT | 28600
ERHLLPGNIFWAVAFGWWLSGCCMIVSGLLYLVPMGGGRYGKLIYGLGWYLAW | 65400
ERKDREKMKAKLKEAKREKQRKERAREREKERERKRKEKEKEKKRKEKERERK | 38000
ERKEAKEQTRRETESKARRGADKEGSEENREDEEGEKKERTSESTDKQKSRRT | 33700
ERKRERREKKEKEREREQREEREKSKERSGKKNGKDSEKRRERRGEKGSEERR | 32800
ERKRKREMAGEDDGRAEAKKVKKEKKEGEKEREKKGKKERKGKKEKEKRKKDM | 16800
ERKRRAKQKEKEERKKKKKKNANSKDARQRSESSSRREKRKDEDSDDEEEEGG | 35700
ERLPVDLAVLCTIVEKLFGLAIMTARHRDLGSLHGVLLPRTWILSLWGDFLRF | 71700
ERLPVDLAVVCTIVERLFGLAVMTARLRKLGSLHGVLLPRTWVLALWRDFIRF | 67500
ERPFFALVVCGEYAHLSPETRVKVAQLLLRCLPAPNLSLLVYLLSFLSHFQHA | 62200
ERPREKKEHSRRHRDDEEKGRRRRHRSRSRSRDRRERRRERSRSRERRRGGDE | 13000
ERQGRGQREERRREDHSRTRVPQRQGQEQREERRREDQYSRQEQQSQGLGQRK | 42100
ERRMGTCRSFHLRVGLPQLYAARLLIKASLDVRRLSVWQLGQLVWSIQKFSRQ | 32200
ERRRKDQRKREKEEEERCHQEGREKKGEEHRREGDEERGRKEQETHASQEANG | 29600
ERSILWRAYLRLISHINSIYKIRIAYEWTEDFVIKYLWSAAGYCLISVPVLLT | 54200
ERSLGGGSLYTGKAVHTDPEMSEVHATEYTRGRLRKFLCLAFGEVASVLRLDK | 16600

Sequence | transcriptional activation domain activity
ERVGERRGSGKTERQRAHDAPEREGARGEKGRRARGTNGEGRGGEEREVRQEG | 25600
ERVIGGIQEDLLLIKTFLTRLSLSHHIHNFHADSWSLGHLASLSWYSFMVWFL | 80000
ESAAASSNQSSAPASAPTPNAPPSTANAEGGENKPKPSRRRGRGGGGGGQKQN | 27400
ESAKDKENAKGRKEAEKKKNKEEKERVKKESRERERESRRSAEGRKRPALASL | 25400
ESAPAAEDKPAEETKPAEAEEAPKAEEKKEEVKPIEEGHLNHKAQGLSFPKNL | < 6570
ESASAAEEPAAKSKRGKKSQAEPEEEELSAVDEEHEPAPKSKRSKKSKAAVET | 13800
ESASTNTSSALNCQSYTNNQDIMDILFQVTSGSVWDEFFVRSGNGNEGESSYD | 86700
ESAVKFENSGPFINPSRASTLLVSRDSNRIILSGTTARGKTAVFLTTGLLVES | 63200
ESCDGSLWLCPFSQPVRPSLIKLVSRGIDRRRITSLLFMLWLVCWAVSLLFSK | 59900
ESDAGEGDKLSKKQKAESGKAVKPEATEGADKKDKKKDKKEKKKDKEAPAKAD | < 6570
ESDEEAAVEAEAPKKKGRAKKVKPESEVDHEPAFEQPKKKGRAAKAKIQPAEE | 15400
ESDEPEQQRAKSQSRRRQSRGRGRKGGSESEAERSDVSASGGGRRNRQRQKKQ | 9900
ESDGGGEESGEGEERRKRRKKERLERRERKLKAKEEKKKKKSRGDGEAATKSQ | 25100
ESDILPRLLHAIRAELKEDISLKFAWRLYKLYLLCVYHLWKNVVLMIWYRRWI | 81700
ESEDEGRDTTHDSDNEGDGHDANHGSENEGEGHDTTHDSKIEGAGRDAIRGSH | 8090
ESEEEVAAGSSANGKKQSGTRDSSKRSKKSDSKSEAKRSDKAEGAAEKTAPES | 18500
ESEGDPEPQPAKSQSRRRQSRGRGRRGAESDSESVARSDVSATGGRRNRQRQK | 43500
ESEKAGGKRKQERRSRAGRGEGEGEERENRCRGEEGRGREGGGRREGKEGVGG | 39400
ESERHSRRRKSVKGKGKAKEVQKKRASKDKTSKRKGKGEKRKRGEEEGRSANK | 60200
ESEVAASENGKGKKEEEEKKRKKGLASTRQRNAAGKQSSSSKEEGKGARAYRS | 26100
